Earlier results as cited in publication PMC5100577.

Molecular target: H2A-H2B dimer (Saccharomyces cerevisiae) (UniProt P04911)
Experiment: fluorescence dequenching

UniProt P04911, sequence (P04911 2-132, chain 1 of 2): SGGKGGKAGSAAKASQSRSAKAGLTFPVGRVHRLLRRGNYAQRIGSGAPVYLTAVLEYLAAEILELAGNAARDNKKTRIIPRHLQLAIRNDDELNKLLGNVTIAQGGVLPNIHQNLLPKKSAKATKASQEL
UniProt P04911, sequence (P02293 2-131, chain 2 of 2, further chain): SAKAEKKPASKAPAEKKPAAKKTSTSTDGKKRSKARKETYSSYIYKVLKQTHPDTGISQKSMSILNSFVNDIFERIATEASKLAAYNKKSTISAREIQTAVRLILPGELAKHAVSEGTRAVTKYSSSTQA

- Kd: 0.0214 µM
Substance: FACT (from UniProt P32558)
